From patent publication US20180155451A1 (published 2018) come the findings set out here.

The labels stand for the following.
B1: GpH7-A5/GpH7-B3 variant Y300_01G/GpL16-k0 (antibody, human IgG1, kappa)
heavy 1: not shown
heavy 2: not shown
light: DIVMTQSPLSLPVTPGEPASISCQASESLVHSNRNTYLHWYLQKPGQSPQLLIYKVSNRFSGVPDRFSGSGSGTDFTLKISRVEAEDVGVYYCSQNTHVPPTFGQGTKVEIERTVAAPSVFIFPPSDEQLKSGTASVVCLLNNFYPREAKVQWKVDNALQSGNSQESVTEQDSKDSTYSLSSTLTLSKADYEKHKVYACEVTHQGLSSPVTKSFNRGEC
notes: heterodimerized IgG1; mutation in one H chain only; also called He Ab
B2: GpH7-A5/GpH7-B3 variant Y296_11K/GpL16-k0 (antibody, human IgG1, kappa)
heavy 1: not shown
heavy 2: not shown
light: B1 light
notes: as for B1
B3: GpH7-A5/GpH7-B3 variant Y300_10E/GpL16-k0 (antibody, human IgG1, kappa)
heavy 1: not shown
heavy 2: not shown
light: B1 light
notes: as for B1
B4: GpH7-A5/GpH7-B3 variant Y296_12R/GpL16-k0 (antibody, human IgG1, kappa)
heavy 1: not shown
heavy 2: not shown
light: B1 light
notes: as for B1
B5: GpH7-A5/GpH7-B3 variant Y300_13S/GpL16-k0 (antibody, human IgG1, kappa)
heavy 1: not shown
heavy 2: not shown
light: B1 light
notes: as for B1
B6: GpH7-A5/GpH7-B3 variant Y296_14T/GpL16-k0 (antibody, human IgG1, kappa)
heavy 1: not shown
heavy 2: not shown
light: B1 light
notes: as for B1
B7: GpH7-B3 variant Y300_10E/GpL16-k0 (antibody, human IgG1, kappa)
heavy: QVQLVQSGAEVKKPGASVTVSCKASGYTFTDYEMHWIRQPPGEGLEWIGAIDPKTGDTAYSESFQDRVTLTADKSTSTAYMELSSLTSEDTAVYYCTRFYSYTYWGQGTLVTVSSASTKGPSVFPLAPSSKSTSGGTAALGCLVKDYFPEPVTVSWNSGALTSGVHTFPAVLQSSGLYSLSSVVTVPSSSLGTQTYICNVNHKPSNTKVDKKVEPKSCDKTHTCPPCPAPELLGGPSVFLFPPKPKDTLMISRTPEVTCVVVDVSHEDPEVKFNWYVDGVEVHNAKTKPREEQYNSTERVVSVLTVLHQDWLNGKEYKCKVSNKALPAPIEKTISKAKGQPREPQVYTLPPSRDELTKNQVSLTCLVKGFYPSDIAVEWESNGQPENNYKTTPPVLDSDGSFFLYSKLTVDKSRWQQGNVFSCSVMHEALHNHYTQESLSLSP
light: B1 light
notes: homodimerized IgG1; mutation in both H chains; also called Ho Ab
B8: GpH7-B3 variant Y300_11K/GpL16-k0 (antibody, human IgG1, kappa)
heavy: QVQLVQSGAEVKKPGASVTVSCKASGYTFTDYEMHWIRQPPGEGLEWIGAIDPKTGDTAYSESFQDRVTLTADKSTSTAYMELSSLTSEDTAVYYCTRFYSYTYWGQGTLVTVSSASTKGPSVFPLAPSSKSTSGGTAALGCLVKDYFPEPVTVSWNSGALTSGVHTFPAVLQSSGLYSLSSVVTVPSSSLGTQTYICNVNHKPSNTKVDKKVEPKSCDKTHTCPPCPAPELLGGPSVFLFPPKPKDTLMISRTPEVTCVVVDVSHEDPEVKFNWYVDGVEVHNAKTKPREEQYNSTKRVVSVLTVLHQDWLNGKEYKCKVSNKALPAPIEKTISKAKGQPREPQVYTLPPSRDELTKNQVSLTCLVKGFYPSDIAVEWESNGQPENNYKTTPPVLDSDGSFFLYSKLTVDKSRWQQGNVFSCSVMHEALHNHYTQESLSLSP
light: B1 light
notes: as for B7
B9: GpH7-A5/GpH7-B3 variant Y300_19Q/GpL16-k0 (antibody, human IgG1, kappa)
heavy 1: not shown
heavy 2: not shown
light: B1 light
notes: as for B1
B10: GpH7-A5/GpH7-B3 variant Y296_16H/GpL16-k0 (antibody, human IgG1, kappa)
heavy 1: not shown
heavy 2: not shown
light: B1 light
notes: as for B1
B11: GpH7-B3 variant Y300_14T/GpL16-k0 (antibody, human IgG1, kappa)
heavy: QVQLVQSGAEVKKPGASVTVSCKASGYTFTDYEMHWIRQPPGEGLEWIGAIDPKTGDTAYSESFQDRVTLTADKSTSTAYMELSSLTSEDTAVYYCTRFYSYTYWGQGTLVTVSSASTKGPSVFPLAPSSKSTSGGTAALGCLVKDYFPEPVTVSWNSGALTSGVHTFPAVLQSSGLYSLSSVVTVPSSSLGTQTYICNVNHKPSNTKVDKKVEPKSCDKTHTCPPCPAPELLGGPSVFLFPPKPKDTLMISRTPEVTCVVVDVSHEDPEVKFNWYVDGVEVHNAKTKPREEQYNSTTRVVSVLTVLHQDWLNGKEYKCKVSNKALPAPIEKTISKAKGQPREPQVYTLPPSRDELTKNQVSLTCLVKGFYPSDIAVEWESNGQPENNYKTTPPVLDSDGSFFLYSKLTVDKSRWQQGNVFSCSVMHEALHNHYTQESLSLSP
light: B1 light
notes: as for B7
B12: GpH7-A5/GpH7-B3 variant Y296_18N/GpL16-k0 (antibody, human IgG1, kappa)
heavy 1: not shown
heavy 2: not shown
light: B1 light
notes: as for B1
B13: GpH7-A5/GpH7-B3 variant Y296_13S/GpL16-k0 (antibody, human IgG1, kappa)
heavy 1: not shown
heavy 2: not shown
light: B1 light
notes: as for B1
B14: GpH7-A5/GpH7-B3 variant Y296_10E/GpL16-k0 (antibody, human IgG1, kappa)
heavy 1: not shown
heavy 2: not shown
light: B1 light
notes: as for B1
B15: GpH7-A5/GpH7-B3 variant Y300_09D/GpL16-k0 (antibody, human IgG1, kappa)
heavy 1: not shown
heavy 2: not shown
light: B1 light
notes: as for B1
B16: GpH7-A5/GpH7-B3 variant Y296_20W/GpL16-k0 (antibody, human IgG1, kappa)
heavy 1: not shown
heavy 2: not shown
light: B1 light
notes: as for B1
B17: GpH7-A5/GpH7-B3 variant Y296_06M/GpL16-k0 (antibody, human IgG1, kappa)
heavy 1: not shown
heavy 2: not shown
light: B1 light
notes: as for B1
B18: GpH7-B3 variant Y300_20W/GpL16-k0 (antibody, human IgG1, kappa)
heavy: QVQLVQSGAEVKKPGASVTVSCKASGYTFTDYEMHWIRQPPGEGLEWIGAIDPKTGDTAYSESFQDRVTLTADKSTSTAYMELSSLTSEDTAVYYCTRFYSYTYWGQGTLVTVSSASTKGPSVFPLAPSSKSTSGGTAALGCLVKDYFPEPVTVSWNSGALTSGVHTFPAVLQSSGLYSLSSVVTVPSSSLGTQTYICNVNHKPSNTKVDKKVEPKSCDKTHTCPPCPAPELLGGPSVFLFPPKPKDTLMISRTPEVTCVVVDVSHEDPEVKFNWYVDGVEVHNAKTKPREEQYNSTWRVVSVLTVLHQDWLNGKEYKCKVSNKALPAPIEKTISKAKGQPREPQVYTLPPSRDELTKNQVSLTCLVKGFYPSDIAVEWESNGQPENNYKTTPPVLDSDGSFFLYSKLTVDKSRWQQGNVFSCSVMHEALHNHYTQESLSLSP
light: B1 light
notes: as for B7
B19: GpH7-A5/GpH7-B3 variant Y300_20W/GpL16-k0 (antibody, human IgG1, kappa)
heavy 1: not shown
heavy 2: not shown
light: B1 light
notes: as for B1
B20: GpH7-A5/GpH7-B3 variant Y300_02A/GpL16-k0 (antibody, human IgG1, kappa)
heavy 1: not shown
heavy 2: not shown
light: B1 light
notes: as for B1
B21: GpH7-A5/GpH7-B3 variant T335_19Q/GpL16-k0 (antibody, human IgG1, kappa)
heavy 1: not shown
heavy 2: not shown
light: B1 light
notes: as for B1
B22: GpH7-A5/GpH7-B3 variant Y300_08L/GpL16-k0 (antibody, human IgG1, kappa)
heavy 1: not shown
heavy 2: not shown
light: B1 light
notes: as for B1
B23: GpH7-A5/GpH7-B3 variant T335_18N/GpL16-k0 (antibody, human IgG1, kappa)
heavy 1: not shown
heavy 2: not shown
light: B1 light
notes: as for B1
B24: GpH7-A5/GpH7-B3 variant T335_16H/GpL16-k0 (antibody, human IgG1, kappa)
heavy 1: not shown
heavy 2: not shown
light: B1 light
notes: as for B1
B25: GpH7-A5/GpH7-B3 variant Y300_14T/GpL16-k0 (antibody, human IgG1, kappa)
heavy 1: not shown
heavy 2: not shown
light: B1 light
notes: as for B1
B26: GpH7-A5/GpH7-B3 variant Y296_19Q/GpL16-k0 (antibody, human IgG1, kappa)
heavy 1: not shown
heavy 2: not shown
light: B1 light
notes: as for B1
B27: GpH7-A5/GpH7-B3 variant Y300_06M/GpL16-k0 (antibody, human IgG1, kappa)
heavy 1: not shown
heavy 2: not shown
light: B1 light
notes: as for B1
B28: GpH7-A5/GpH7-B3 variant Y300_11K/GpL16-k0 (antibody, human IgG1, kappa)
heavy 1: not shown
heavy 2: not shown
light: B1 light
notes: as for B1
B29: GpH7-A5/GpH7-B3 variant Y300_03V/GpL16-k0 (antibody, human IgG1, kappa)
heavy 1: not shown
heavy 2: not shown
light: B1 light
notes: as for B1
B30: GpH7-B3 variant Y300_19Q/GpL16-k0 (antibody, human IgG1, kappa)
heavy: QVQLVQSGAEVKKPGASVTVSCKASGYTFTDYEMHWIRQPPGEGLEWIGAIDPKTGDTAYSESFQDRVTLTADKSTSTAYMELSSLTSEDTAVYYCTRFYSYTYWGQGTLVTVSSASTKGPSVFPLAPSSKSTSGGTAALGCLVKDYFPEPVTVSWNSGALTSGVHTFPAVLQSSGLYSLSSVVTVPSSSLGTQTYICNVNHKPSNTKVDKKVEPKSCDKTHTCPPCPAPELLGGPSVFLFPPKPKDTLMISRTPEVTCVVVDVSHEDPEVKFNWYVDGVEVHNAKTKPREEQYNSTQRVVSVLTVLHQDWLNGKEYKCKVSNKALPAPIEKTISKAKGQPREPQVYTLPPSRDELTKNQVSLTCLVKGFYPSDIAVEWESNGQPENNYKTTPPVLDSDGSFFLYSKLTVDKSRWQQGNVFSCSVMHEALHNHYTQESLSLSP
light: B1 light
notes: as for B7
B31: GpH7-A5/GpH7-B3 variant T335_20W/GpL16-k0 (antibody, human IgG1, kappa)
heavy 1: not shown
heavy 2: not shown
light: B1 light
notes: as for B1
B32: GpH7-B3 variant Y300_13S/GpL16-k0 (antibody, human IgG1, kappa)
heavy: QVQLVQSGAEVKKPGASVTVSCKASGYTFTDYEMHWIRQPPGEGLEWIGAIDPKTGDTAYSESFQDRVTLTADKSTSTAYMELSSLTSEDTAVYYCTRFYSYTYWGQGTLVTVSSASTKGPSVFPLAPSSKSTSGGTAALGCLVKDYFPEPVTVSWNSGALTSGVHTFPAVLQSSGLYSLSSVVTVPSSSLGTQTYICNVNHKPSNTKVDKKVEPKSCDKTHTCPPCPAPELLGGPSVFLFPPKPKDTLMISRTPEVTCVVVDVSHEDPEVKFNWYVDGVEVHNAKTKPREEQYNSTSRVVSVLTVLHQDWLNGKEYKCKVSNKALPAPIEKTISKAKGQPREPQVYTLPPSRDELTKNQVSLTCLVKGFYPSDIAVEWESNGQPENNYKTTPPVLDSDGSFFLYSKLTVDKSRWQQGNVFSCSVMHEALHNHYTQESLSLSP
light: B1 light
notes: as for B7
B33: GpH7-A5/GpH7-B3 variant A327_12R/GpL16-k0 (antibody, human IgG1, kappa)
heavy 1: not shown
heavy 2: not shown
light: B1 light
notes: He Ab; IgG1; mutation in one H chain only; also called He Ab
B34: GpH7-A5/GpH7-B3 variant L328_11K/GpL16-k0 (antibody, human IgG1, kappa)
heavy 1: not shown
heavy 2: not shown
light: B1 light
notes: as for B33
B35: GpH7-A5/GpH7-B3 variant L328_12R/GpL16-k0 (antibody, human IgG1, kappa)
heavy 1: not shown
heavy 2: not shown
light: B1 light
notes: as for B33

The first assay deals with T1, FcγRIa (human, UniProt P12314 16-292).
T1 construct: extracellular domain; also called FcgRI; CD64; not shown: C-terminal His tag
T1 sequence (P12314 16-292): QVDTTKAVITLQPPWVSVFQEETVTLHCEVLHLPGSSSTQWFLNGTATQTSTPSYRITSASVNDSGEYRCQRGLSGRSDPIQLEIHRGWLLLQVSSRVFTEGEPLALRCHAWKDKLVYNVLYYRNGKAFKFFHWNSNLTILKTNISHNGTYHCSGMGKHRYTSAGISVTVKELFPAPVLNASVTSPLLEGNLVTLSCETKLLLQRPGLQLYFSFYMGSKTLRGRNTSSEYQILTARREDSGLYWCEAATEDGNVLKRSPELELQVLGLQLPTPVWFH
Nature of the assay: SPR (Biacore), antibody captured on antigen peptide chip, FcγRIa as analyte; relative binding amount. On the procedure:
Analysis of interaction between objective antibody and the FcγR was carried out using Biacore T100 (GE Healthcare). HBS-EP+ (GE Healthcare) was used as the running buffer, and the measurement temperature was set to 25° C. Chips produced by immobilizing the antigen peptide by the amine coupling method to a Series S Sencor Chip CM5 (GE Healthcare), or alternatively, chips produced by allowing preliminarily biotinylated antigen peptides to interact with and immobilize onto a Series S Sensor Chip SA (certified) (GE Healthcare) were used. Antibodies of interest were captured onto an antigen peptide-immobilized chip, and allowed to interact to each FcγR diluted with running buffer. To regenerate and repeatedly use the chip, the antibodies captured on the chip were washed off by reacting 10 mM glycine-HCl, pH 1.5.
Background: In SPR one partner is held on a chip, and binding of the other changes the refractive index at the surface.
B1: the He/Con_1a was 116 % of control (GpH7-A5/GpH7-B3/GpL16-k0 = 100).

In the case of B2, the He/Con_1a was 105 % of control (GpH7-A5/GpH7-B3/GpL16-k0 = 100).

For B3, the He/Con_1a is 114 % of control (GpH7-A5/GpH7-B3/GpL16-k0 = 100).

B4: the He/Con_1a was 106 % of control (GpH7-A5/GpH7-B3/GpL16-k0 = 100).

In the case of B5, the He/Con_1a is 111 % of control (GpH7-A5/GpH7-B3/GpL16-k0 = 100).

Take B6: the He/Con_1a is 105 % of control (GpH7-A5/GpH7-B3/GpL16-k0 = 100).

Regarding B7, the Ho/Con_1a is 111 % of control (GpH7-B3/GpL16-k0 = 100).

On to B8, for which the Ho/Con_1a was 101 % of control (GpH7-B3/GpL16-k0 = 100).

Regarding B9, the He/Con_1a was 112 % of control (GpH7-A5/GpH7-B3/GpL16-k0 = 100).

Regarding B10, the He/Con_1a was 106 % of control (GpH7-A5/GpH7-B3/GpL16-k0 = 100).

For B11, the Ho/Con_1a was 110 % of control (GpH7-B3/GpL16-k0 = 100).

In the case of B12, the He/Con_1a is 106 % of control (GpH7-A5/GpH7-B3/GpL16-k0 = 100).

With B13, the He/Con_1a was 105 % of control (GpH7-A5/GpH7-B3/GpL16-k0 = 100).

As to B14, the He/Con_1a was 106 % of control (GpH7-A5/GpH7-B3/GpL16-k0 = 100).

Take B15: the He/Con_1a is 112 % of control (GpH7-A5/GpH7-B3/GpL16-k0 = 100).

Turning to B16, the He/Con_1a was 111 % of control (GpH7-A5/GpH7-B3/GpL16-k0 = 100).

B17: the He/Con_1a was 104 % of control (GpH7-A5/GpH7-B3/GpL16-k0 = 100).

Consider B18, for which the Ho/Con_1a was 110 % of control (GpH7-B3/GpL16-k0 = 100).

For B19, the He/Con_1a was 112 % of control (GpH7-A5/GpH7-B3/GpL16-k0 = 100).

Turning to B20, the He/Con_1a was 112 % of control (GpH7-A5/GpH7-B3/GpL16-k0 = 100).

Take B21: the He/Con_1a is 105 % of control (GpH7-A5/GpH7-B3/GpL16-k0 = 100).

B22: the He/Con_1a was 113 % of control (GpH7-A5/GpH7-B3/GpL16-k0 = 100).

On to B23, for which the He/Con_1a was 106 % of control (GpH7-A5/GpH7-B3/GpL16-k0 = 100).

In the case of B24, the He/Con_1a was 106 % of control (GpH7-A5/GpH7-B3/GpL16-k0 = 100).

As for B25, the He/Con_1a is 112 % of control (GpH7-A5/GpH7-B3/GpL16-k0 = 100).

Take B26: the He/Con_1a was 112 % of control (GpH7-A5/GpH7-B3/GpL16-k0 = 100).

Take B27: the He/Con_1a is 112 % of control (GpH7-A5/GpH7-B3/GpL16-k0 = 100).

B28: the He/Con_1a was 107 % of control (GpH7-A5/GpH7-B3/GpL16-k0 = 100).

B29: the He/Con_1a was 117 % of control (GpH7-A5/GpH7-B3/GpL16-k0 = 100).

For the molecule B30, the Ho/Con_1a is 110 % of control (GpH7-B3/GpL16-k0 = 100).

In the case of B31, the He/Con_1a was 106 % of control (GpH7-A5/GpH7-B3/GpL16-k0 = 100).

For B32, the Ho/Con_1a is 110 % of control (GpH7-B3/GpL16-k0 = 100).

The target of a further assay is T2, FcγRIIa H (FcγRIIa type H, His at position 131), extracellular domain with C-terminal His tag (human, UniProt P12318 34-217).
T2 construct: extracellular domain; Expressed in FreeStyle293 cells; analyte in the Biacore assay; also called FcgRIIa H; 2aH; not shown: His tag at the C terminus
T2 sequence (looked up): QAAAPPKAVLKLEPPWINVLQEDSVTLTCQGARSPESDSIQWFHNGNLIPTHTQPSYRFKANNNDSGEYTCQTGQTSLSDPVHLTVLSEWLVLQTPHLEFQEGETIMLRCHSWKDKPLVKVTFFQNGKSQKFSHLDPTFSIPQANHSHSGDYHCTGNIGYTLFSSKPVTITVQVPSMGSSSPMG
Put plainly: SPR Biacore; He/Con_2aH divided by He/Con_2b (reference: FcgRIIb).
For B33, the “He_2aH/2b (IIaH/IIb)” value came out at 1.26.

Turning to B34, the “He_2aH/2b (IIaH/IIb)” value came out at 4.27.

As to B35, the “He_2aH/2b (IIaH/IIb)” value was found to be 4.6.

Another assay has as its target T2, FcγRIIa H (FcγRIIa type H, His at …). Nature of the assay: SPR Biacore, captured antibody, FcgR analyte; GpH7-A5/GpH7-B3/GpL16-k0 = 100.
For B33, the He/Con_2aH was 11.3 % of HeCon Ab.

For the molecule B34, the He/Con_2aH is 32.2 % of HeCon Ab.

Regarding B35, the He/Con_2aH is 42.5 % of HeCon Ab.
